Assays:
Bio-P19 member A2E-23 = molecular target: T1, Bio-P19 member A2E-23 (chain 2 carries a C-terminal BirA substrate peptide (BSP), enzymatically biotinylated; the BSP letters are not given in the patent and are left out); assay: phage ELISA, streptavidin plate, anti-M13-HRP
T1 construct: also called biotinylated control peptide A2E-23/HLA-A*02:01 monomer
Procedure, shortened: (§1)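 Phage ELISA: individual scFv phage clones from panning pools enriched against PSA146/HLA-A*02:01 were incubated in coated streptavidin plates; binding was detected with HRP anti-M13 and HRP substrate, read at 450 nm. For flow cytometry, T2 cells loaded with peptide and β2M were stained with purified phage clones.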

Bio-P19 member A2E-9 = molecular target: T2, Bio-P19 member A2E-9 (chain 2 (heavy): C-terminal BirA substrate peptide, biotinylated there by BirA; tag letters not given, left out); assay: phage ELISA, streptavidin plate, anti-M13-HRP
T2 construct: also called biotinylated control peptide A2E-9/HLA-A*02:01 monomer; not shown: BirA substrate peptide (BSP) tag at the C-terminus of the heavy chain
Procedure, shortened: as §1

Bio-P19 member A2E-3 = molecular target: T3, Bio-P19 member A2E-3 (chain 2 carries a C-terminal BirA substrate peptide (BSP), enzymatically biotinylated; the BSP letters are not given in the patent and are left out); assay: phage ELISA, streptavidin plate, anti-M13-HRP
T3 construct: also called biotinylated control peptide A2E-3/HLA-A*02:01 monomer
Procedure, shortened: as §1

Bio-P19 member A2E-2 = molecular target: T4, Bio-P19 member A2E-2 (chain 2 carries a C-terminal BirA substrate peptide (BSP), enzymatically biotinylated; the BSP letters are not given in the patent and are left out); assay: phage ELISA, streptavidin plate, anti-M13-HRP
T4 construct: also called biotinylated control peptide A2E-2/HLA-A*02:01 monomer
Procedure, shortened: as §1

[1] = molecular target: T5, control peptide A2E-9/HLA-A*02:01 complex on T2 cells (member of the P19 mixture) (human); assay: flow cytometry, phage on T2 cells
T5 construct: Loaded on T2 cells as part of the mixture of 19 control peptides
Protocol: (§2) Individual phage clones from enriched phage display panning pools against PSA146/HLA-A*02:01 complex were incubated in the coated plates. Binding of the phage clones was detected by HRP-conjugated anti-M13 antibodies and developed using HRP substrate. The absorbance was read at 450 nm. […] Then, unique antibody clones were identified through DNA sequencing of ELISA-positive clones. […] T2 cells loaded with different peptides and β2M were first stained with purified scFv phage clones, followed by staining with a mouse anti-M13 mAb, and finally R-PE conjugated horse anti-mouse IgG from Vector Labs. Each step of the staining was performed for between 30-60 minutes on ice and the cells were washed twice between stainings. All 16 clones recognized PSA146-loaded T2 cells specifically. FIG. 3 provides examples of PSA146/HLA-A*02:01 specific phage clone binding to peptide-loaded T2 cells through FACS.

[2] = molecular target: T6, control peptide A2E-15/HLA-A*02:01 complex on T2 cells (member of the P19 mixture) (human); assay: flow cytometry, phage on T2 cells
T6 construct: Loaded on T2 cells as part of the mixture of 19 control peptides
Protocol: as §2

[3] = molecular target: T7, control peptide A2E-6/HLA-A*02:01 complex on T2 cells (member of the P19 mixture) (human); assay: flow cytometry, phage on T2 cells
T7 construct: Loaded on T2 cells as part of the mixture of 19 control peptides
Protocol: as §2

[4] = molecular target: T8, control peptide A2E-21/HLA-A*02:01 complex on T2 cells (member of the P19 mixture) (human); assay: flow cytometry, phage on T2 cells
T8 construct: Loaded on T2 cells as part of the mixture of 19 control peptides
Protocol: as §2

[5] = molecular target: T9, control peptide A2E-3/HLA-A*02:01 complex on T2 cells (member of the P19 mixture) (human); assay: flow cytometry, phage on T2 cells
T9 construct: Loaded on T2 cells as part of the mixture of 19 control peptides
Protocol: as §2

[6] = molecular target: T10, control peptide A2E-2/HLA-A*02:01 complex on T2 cells (member of the P19 mixture) (human); assay: flow cytometry, phage on T2 cells
T10 construct: Loaded on T2 cells as part of the mixture of 19 control peptides
Protocol: as §2

[7] = molecular target: T11, control peptide A2E-16/HLA-A*02:01 complex on T2 cells (member of the P19 mixture) (human); assay: flow cytometry, phage on T2 cells
T11 construct: Loaded on T2 cells as part of the mixture of 19 control peptides
Protocol: as §2

[8] = molecular target: T12, control peptide A2E-11/HLA-A*02:01 complex on T2 cells (member of the P19 mixture) (human); assay: flow cytometry, phage on T2 cells
T12 construct: Loaded on T2 cells as part of the mixture of 19 control peptides
Protocol: as §2

[9] = molecular target: T13, control peptide A2E-13/HLA-A*02:01 complex on T2 cells (member of the P19 mixture) (human); assay: flow cytometry, phage on T2 cells
T13 construct: Loaded on T2 cells as part of the mixture of 19 control peptides
Protocol: as §2

[10] = molecular target: T14, control peptide A2E-5/HLA-A*02:01 complex on T2 cells (member of the P19 mixture) (human); assay: flow cytometry, phage on T2 cells
T14 construct: Loaded on T2 cells as part of the mixture of 19 control peptides
Protocol: as §2

[11] = molecular target: T15, control peptide A2E-8/HLA-A*02:01 complex on T2 cells (member of the P19 mixture) (human); assay: flow cytometry, phage on T2 cells
T15 construct: Loaded on T2 cells as part of the mixture of 19 control peptides
Protocol: as §2

[12] = molecular target: T16, control peptide A2E-7/HLA-A*02:01 complex on T2 cells (member of the P19 mixture) (human); assay: flow cytometry, phage on T2 cells
T16 construct: Loaded on T2 cells as part of the mixture of 19 control peptides
Protocol: as §2

[13] = molecular target: T17, control peptide A2E-14/HLA-A*02:01 complex on T2 cells (member of the P19 mixture) (human); assay: flow cytometry, phage on T2 cells
T17 construct: Loaded on T2 cells as part of the mixture of 19 control peptides
Protocol: as §2

[14] = molecular target: T18, control peptide A2E-19/HLA-A*02:01 complex on T2 cells (member of the P19 mixture) (human); assay: flow cytometry, phage on T2 cells
T18 construct: Loaded on T2 cells as part of the mixture of 19 control peptides
Protocol: as §2

[15] = molecular target: T19, control peptide A2E-1/HLA-A*02:01 complex on T2 cells (member of the P19 mixture) (human); assay: flow cytometry, phage on T2 cells
T19 construct: Loaded on T2 cells as part of the mixture of 19 control peptides
Protocol: as §2

[16] = molecular target: T20, control peptide A2E-23/HLA-A*02:01 complex on T2 cells (member of the P19 mixture) (human); assay: flow cytometry, phage on T2 cells
T20 construct: Loaded on T2 cells as part of the mixture of 19 control peptides
Protocol: as §2

[17] = molecular target: T21, control peptide A2E-17/HLA-A*02:01 complex on T2 cells (member of the P19 mixture) (human); assay: flow cytometry, phage on T2 cells
T21 construct: Loaded on T2 cells as part of the mixture of 19 control peptides
Protocol: as §2

[18] = molecular target: T22, control peptide A2E-10/HLA-A*02:01 complex on T2 cells (member of the P19 mixture) (human); assay: flow cytometry, phage on T2 cells
T22 construct: Loaded on T2 cells as part of the mixture of 19 control peptides
Protocol: as §2

[19] = molecular target: T23, control peptide A2E-4/HLA-A*02:01 complex on T2 cells (member of the P19 mixture) (human); assay: flow cytometry, phage on T2 cells
T23 construct: Loaded on T2 cells as part of the mixture of 19 control peptides
Protocol: as §2

Measured: binding result

B1: PSA146/HLA-A*02:01-specific scFv phage clone #15 (scFv, V domains shown)
VH: QVQLVQSGAEVKKPGSSVKVSCKASGGTFSSYAISWVRQAPGQGLEWMGRIIPILGIANYAQKFQGRVTITADKSTSTAYMELSSLRSEDTAVYYCARVSQPVYGSSTYDIWGQGTLVTVSS
VL: QAVLTQPPSASGTPGQRVTISCSGRSSNLGSNSVNWYQQVPGTAPKLLIFDNHQRPSGVPDRFSGSKSGTSASLAISGLRSEDETDYYCAAWDDSLNSVVFGGGTKLTVLG
no binding: Bio-P19 member A2E-23 | Bio-P19 member A2E-9 | Bio-P19 member A2E-3 | Bio-P19 member A2E-2 | [1] | [2] | [3] | [4] | [5] | [6] | [7] | [8] | [9] | [10] | [11] | [12] | [13] | [14] | [15] | [16] | [17] | [18] | [19]

B2: PSA146/HLA-A*02:01-specific scFv phage clone #18 (scFv, V domains shown)
VH: QVQLVQSGAEVKKPGESLKISCKGSGYSFTSYWIGWVRQMPGKGLEWMGIIYPGDSDTRYSPSFQGQVTISADKSISTAYLQWSSLKASDTAMYYCARWGSRGFLDAFDIWGQGTMVTVSS
VL: QSVVTQPPSVSAAPGQRVTISCSGSSSNIGNNYVSWYQQLPGAAPRLLIYDNDKRPSGIPDRFSGSKSGTSATLGITGLQTGDEADYYCGTWDSSLSSGVFGGGTKLTVLG
no binding: Bio-P19 member A2E-23 | Bio-P19 member A2E-9 | Bio-P19 member A2E-3 | Bio-P19 member A2E-2 | [1] | [2] | [3] | [4] | [5] | [6] | [7] | [8] | [9] | [10] | [11] | [12] | [13] | [14] | [15] | [16] | [17] | [18] | [19]

B3: PSA146/HLA-A*02:01-specific scFv phage clone #14 (scFv, V domains shown)
VH: EVQLVQSGAEVKKPGASVKVSCKASGYTFTGYFMHWVRQAPGQGLEWMGGFDPEDGETIYAQKFQGRVTMTEDTSTDTAYMELSSLRSEDTAVYYCARYSYDLWGQGTLVTVSS
VL: QTVVTQEPSLTVSPGGTVTLTCASSTGAVTSGYYPNWFQQKPGQAPRALIYSTSNKHSWTPARFSGSLLGGKAALTLSGVQPEDEAEYYCLLYYGGAQWVFGGGTKLTVLG
no binding: Bio-P19 member A2E-23 | Bio-P19 member A2E-9 | Bio-P19 member A2E-3 | Bio-P19 member A2E-2 | [1] | [2] | [3] | [4] | [5] | [6] | [7] | [8] | [9] | [10] | [11] | [12] | [13] | [14] | [15] | [16] | [17] | [18] | [19]
